Data set [1] addresses T1, biotinylated AviTag-haBiP^V461F(19-654), AMPylated (Chinese hamster, UniProt G3I8R9 19-654, V461F, AMP on Thr518 (AMPylation); biotin on the AviTag).
T1 construct: Chinese hamster BiP (haBiP), aa 19-654; also called BiP-AMP; AMPylated BiP; not shown: GST, N-terminal, cleaved; AviTag, N-terminal, kept
Nature of the data set: BLI; biotinylated AMPylated or unmodified BiP immobilised on streptavidin biosensors; FICD His363Ala variants in solution at 250 nM; HKM plus 0.05% Triton X-100, 30 °C (Figure S2G). The note with it: both partners purified. (Biolayer interferometry detects binding as a change in optical thickness at a sensor tip.)

Data set [2] addresses T2, biotinylated AviTag-haBiP(28-635)^T229A-V461F (Chinese hamster, UniProt G3I8R9 28-635, T229A | V461F, biotin on the AviTag).
T2 construct: Chinese hamster BiP (haBiP), aa 28-635; the assay tells the nucleotide state; also called BiP^T229A-V461F:Apo; BiP:ATP; not shown: GST, N-terminal, cleaved; AviTag, N-terminal, kept
Kind of data set: BLI; biotinylated BiP^T229A-V461F(28-635) immobilised on streptavidin biosensors and pre-saturated with ATP (2 mM); FICD His363Ala variants at 250 nM, without or with nucleotide (ATP 8 mM, ADP 2 mM); HKM plus 0.05% Triton X-100, 30 °C. Conditions: both partners purified.

For data set [3], the target named is T3, biotinylated AviTag-FICD(104-458)^H363A (human, UniProt Q9BVA6 104-458, H363A, biotin on the AviTag).
T3 construct: human FICD (HYPE), aa 104-458; Expression, purification and biotinylation of this construct are not described; also called N-terminally biotinylated FICD^H363A; UK 2422; not shown: AviTag, N-terminal, kept
T3 sequence (looked up): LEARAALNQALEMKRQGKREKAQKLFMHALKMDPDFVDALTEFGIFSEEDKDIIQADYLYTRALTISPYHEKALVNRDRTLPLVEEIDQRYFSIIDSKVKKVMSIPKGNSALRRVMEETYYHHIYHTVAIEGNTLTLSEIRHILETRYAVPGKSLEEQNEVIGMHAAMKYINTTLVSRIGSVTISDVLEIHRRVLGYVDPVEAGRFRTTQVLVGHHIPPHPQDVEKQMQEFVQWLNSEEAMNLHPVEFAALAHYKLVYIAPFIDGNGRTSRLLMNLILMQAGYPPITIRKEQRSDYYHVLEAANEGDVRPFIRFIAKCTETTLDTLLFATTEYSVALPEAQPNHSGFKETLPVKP
Nature of the data set: BLI; dimer dissociation: biotinylated AviTag-FICD(104-458)^H363A (3 nM) pre-incubated with FICD^H363A (300 nM), loaded on streptavidin biosensors; dissociation by infinite dilution into HKTx buffer ± nucleotide at 5 mM, 30 °C; mono-exponential fit. Conditions: both partners purified.

Data set [4] concerns the molecule itself. Nature of the data set: SEC; analytical SEC, SEC-3 HPLC column, HKMC buffer (50 mM HEPES-KOH pH 7.4, 150 mM KCl, 10 mM MgCl2, 1 mM CaCl2), 25 °C; FICD at 20 µM, or 0.2-50 µM after 16 h at 25 °C (Figure S1D-E); approximate Kd of dimer to monomers from elution peak times.

Where only a bound is given, the exact number is not on record here.

T1 sequence (G3I8R9 19-654 V461F): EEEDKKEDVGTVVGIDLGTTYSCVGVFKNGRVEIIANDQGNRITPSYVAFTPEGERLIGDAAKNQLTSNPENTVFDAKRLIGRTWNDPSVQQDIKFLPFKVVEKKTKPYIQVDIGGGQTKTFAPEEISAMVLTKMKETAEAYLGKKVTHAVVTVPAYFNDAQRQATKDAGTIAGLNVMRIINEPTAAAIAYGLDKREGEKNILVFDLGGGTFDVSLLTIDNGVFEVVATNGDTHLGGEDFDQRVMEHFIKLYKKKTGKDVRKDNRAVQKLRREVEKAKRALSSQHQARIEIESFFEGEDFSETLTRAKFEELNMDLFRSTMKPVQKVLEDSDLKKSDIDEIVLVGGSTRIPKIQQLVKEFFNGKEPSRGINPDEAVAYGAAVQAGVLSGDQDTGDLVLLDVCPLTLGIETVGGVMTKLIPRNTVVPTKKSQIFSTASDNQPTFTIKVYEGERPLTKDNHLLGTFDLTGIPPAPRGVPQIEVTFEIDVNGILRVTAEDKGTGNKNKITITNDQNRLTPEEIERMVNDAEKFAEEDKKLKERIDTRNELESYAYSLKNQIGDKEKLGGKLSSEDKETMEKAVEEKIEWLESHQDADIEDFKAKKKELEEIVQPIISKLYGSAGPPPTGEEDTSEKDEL
T2 sequence (G3I8R9 28-635 T229A/V461F): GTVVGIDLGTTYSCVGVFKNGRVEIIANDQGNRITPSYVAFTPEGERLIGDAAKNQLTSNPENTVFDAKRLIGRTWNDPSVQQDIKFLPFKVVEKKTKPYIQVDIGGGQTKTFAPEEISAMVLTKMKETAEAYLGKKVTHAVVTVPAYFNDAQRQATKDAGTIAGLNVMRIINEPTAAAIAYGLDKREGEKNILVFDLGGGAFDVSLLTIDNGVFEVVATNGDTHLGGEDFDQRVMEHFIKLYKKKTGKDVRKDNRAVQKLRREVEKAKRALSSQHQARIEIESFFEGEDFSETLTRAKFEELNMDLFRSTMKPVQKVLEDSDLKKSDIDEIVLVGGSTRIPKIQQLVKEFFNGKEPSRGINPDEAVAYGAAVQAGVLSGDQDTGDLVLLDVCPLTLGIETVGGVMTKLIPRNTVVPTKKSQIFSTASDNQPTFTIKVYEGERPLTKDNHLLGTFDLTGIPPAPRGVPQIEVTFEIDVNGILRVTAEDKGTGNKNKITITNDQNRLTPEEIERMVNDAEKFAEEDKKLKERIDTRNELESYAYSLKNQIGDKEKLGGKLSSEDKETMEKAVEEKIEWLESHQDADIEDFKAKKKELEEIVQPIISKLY

B1: FICD^H363A (aa 104-445) (domain or fragment, human, UniProt Q9BVA6 104-445, looked up)
chain: LEARAALNQALEMKRQGKREKAQKLFMHALKMDPDFVDALTEFGIFSEEDKDIIQADYLYTRALTISPYHEKALVNRDRTLPLVEEIDQRYFSIIDSKVKKVMSIPKGNSALRRVMEETYYHHIYHTVAIEGNTLTLSEIRHILETRYAVPGKSLEEQNEVIGMHAAMKYINTTLVSRIGSVTISDVLEIHRRVLGYVDPVEAGRFRTTQVLVGHHIPPHPQDVEKQMQEFVQWLNSEEAMNLHPVEFAALAHYKLVYIAPFIDGNGRTSRLLMNLILMQAGYPPITIRKEQRSDYYHVLEAANEGDVRPFIRFIAKCTETTLDTLLFATTEYSVALPEAQP
notes: human FICD (HYPE), aa 104-445; also called dFICD^H363A; source: E. coli T7 Express lysY/I^q, purified (Ni-NTA, on-column Ulp1 cleavage, anion exchange, SEC); not shown: His6, N-terminal, cleaved; Smt3, N-terminal, cleaved
In the case of B1, the binding result in data set [1] and in data set [2] was “binds” in each case. The “fold increase in the dimer off rate with ATP (5 mM) against no nucleotide” value in data set [3] turned out to be 3 fold.

B2: FICD^G299S (aa 104-445) (domain or fragment, human, UniProt Q9BVA6 104-445, looked up)
chain: LEARAALNQALEMKRQGKREKAQKLFMHALKMDPDFVDALTEFGIFSEEDKDIIQADYLYTRALTISPYHEKALVNRDRTLPLVEEIDQRYFSIIDSKVKKVMSIPKGNSALRRVMEETYYHHIYHTVAIEGNTLTLSEIRHILETRYAVPGKSLEEQNEVIGMHAAMKYINTTLVSRIGSVTISDVLEIHRRVLSYVDPVEAGRFRTTQVLVGHHIPPHPQDVEKQMQEFVQWLNSEEAMNLHPVEFAALAHYKLVYIHPFIDGNGRTSRLLMNLILMQAGYPPITIRKEQRSDYYHVLEAANEGDVRPFIRFIAKCTETTLDTLLFATTEYSVALPEAQP
notes: human FICD (HYPE), aa 104-445; Partially monomeric; also called Gly299Ser; source: E. coli T7 Express lysY/I^q, purified (Ni-NTA, on-column Ulp1 cleavage, anion exchange, SEC); not shown: His6, N-terminal, cleaved; Smt3, N-terminal, cleaved
The term Kd denotes the equilibrium constant for the complex coming apart. On to B2, for which the Kd in data set [4] amounted to 9.5 µM.

B3: wild-type FICD (aa 104-445) (domain or fragment, human, UniProt Q9BVA6 104-445, looked up)
chain: LEARAALNQALEMKRQGKREKAQKLFMHALKMDPDFVDALTEFGIFSEEDKDIIQADYLYTRALTISPYHEKALVNRDRTLPLVEEIDQRYFSIIDSKVKKVMSIPKGNSALRRVMEETYYHHIYHTVAIEGNTLTLSEIRHILETRYAVPGKSLEEQNEVIGMHAAMKYINTTLVSRIGSVTISDVLEIHRRVLGYVDPVEAGRFRTTQVLVGHHIPPHPQDVEKQMQEFVQWLNSEEAMNLHPVEFAALAHYKLVYIHPFIDGNGRTSRLLMNLILMQAGYPPITIRKEQRSDYYHVLEAANEGDVRPFIRFIAKCTETTLDTLLFATTEYSVALPEAQP
notes: human FICD (HYPE), aa 104-445; Dimer by SEC, AUC and crystal structure; also called HYPE; dFICD; source: E. coli T7 Express lysY/I^q, purified (Ni-NTA, on-column Ulp1 cleavage, anion exchange, SEC); not shown: His6, N-terminal, cleaved; Smt3, N-terminal, cleaved
For B3, in data set [4], the binding result was “binds”.

B4: FICD^K256S (aa 104-445) (domain or fragment, human, UniProt Q9BVA6 104-445, looked up)
chain: LEARAALNQALEMKRQGKREKAQKLFMHALKMDPDFVDALTEFGIFSEEDKDIIQADYLYTRALTISPYHEKALVNRDRTLPLVEEIDQRYFSIIDSKVKKVMSIPKGNSALRRVMEETYYHHIYHTVAIEGNTLTLSEIRHILETRYAVPGSSLEEQNEVIGMHAAMKYINTTLVSRIGSVTISDVLEIHRRVLGYVDPVEAGRFRTTQVLVGHHIPPHPQDVEKQMQEFVQWLNSEEAMNLHPVEFAALAHYKLVYIHPFIDGNGRTSRLLMNLILMQAGYPPITIRKEQRSDYYHVLEAANEGDVRPFIRFIAKCTETTLDTLLFATTEYSVALPEAQP
notes: human FICD (HYPE), aa 104-445; also called Lys256Ser; dimer relay mutant; source: E. coli T7 Express lysY/I^q, purified (Ni-NTA, on-column Ulp1 cleavage, anion exchange, SEC); not shown: His6, N-terminal, cleaved; Smt3, N-terminal, cleaved
As to B4, the Kd in data set [4] was below 0.4 µM.

B5: non-oxidised FICD^A252C-C421S (aa 104-445) (domain or fragment, human, UniProt Q9BVA6 104-445, looked up)
chain: LEARAALNQALEMKRQGKREKAQKLFMHALKMDPDFVDALTEFGIFSEEDKDIIQADYLYTRALTISPYHEKALVNRDRTLPLVEEIDQRYFSIIDSKVKKVMSIPKGNSALRRVMEETYYHHIYHTVAIEGNTLTLSEIRHILETRYCVPGKSLEEQNEVIGMHAAMKYINTTLVSRIGSVTISDVLEIHRRVLGYVDPVEAGRFRTTQVLVGHHIPPHPQDVEKQMQEFVQWLNSEEAMNLHPVEFAALAHYKLVYIHPFIDGNGRTSRLLMNLILMQAGYPPITIRKEQRSDYYHVLEAANEGDVRPFIRFIAKSTETTLDTLLFATTEYSVALPEAQP
notes: human FICD (HYPE), aa 104-445; also called non-disulphide-bonded FICD^A252C-C421S; UK 2219; source: E. coli, purified; separate preparation not subjected to oxidation with glutathione; not shown: His6, N-terminal, cleaved; Smt3, N-terminal, cleaved
Turning to B5, in data set [4], the binding result was “binds”.
